Experiment: yeast display, Sf9 membrane polyspecificity reagent, FACS + sequencing; frameworks hold sequencing errors
How it was run: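 Using colony PCR, genes from sorted yeast display clones were amplified, then sequenced on MiSeq at 2 × 250 and filtered by CDR length. The clones had been stained with 10% biotinylated, detergent-solubilized Sf9 membrane reagent for 1 hour at 4 °C and sorted by FACS into low and high (top ~1%) gates on anti-HA and streptavidin fluorescence. Polyreactivity labels come from the gate of origin.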
With “QFQLLESGGGVVHAAGSLRLSCAASGLIFPIYAMGWYRQAPGKERELVAVISSSGGSTNYADSVKGRFTISRDNAKNTVYLQMNSLKPEDTAVYYCAARYLQGRYDYWGQGTQVTVSS” the “polyreactivity (PSR sort gate)” value was “high polyreactivity”.
In the case of “QVQLGESGGRLVQAGGSLRLSCAASGRTIVINAMGWYRKEPGKERELVAAISRGGSTNYADSVKGRFTISRDNAKNTVYLQMNRLKPEDTAVYYCKADYPNWWSPFDYWGQGTQVTVSS”, the “polyreactivity (PSR sort gate)” value is reported as “low polyreactivity”.
With “QVQLQESGGGLVQVGGSLRLSCPSSGTIFIYGFLGWNRQAPGKERELVASINLGGITNYADSVKGRCTISRDNAKNTVNLQMISLKPEDTAVYYCATYVVTGQNYGYWGQGTQVTVSR” the “polyreactivity (PSR sort gate)” value was “low polyreactivity”.
With “QVQLVESGGGLVQAGGSLRLSCAASGSIFITYAMGWYRQAPGKERELVAAIRDSGDRTYYADSVKGRFTISRDNAKKTVYLQMNSLKPEDTAVYYCAARIWTGRGRKLGYGYDYWGQGTQVTVSS” the “polyreactivity (PSR sort gate)” value was “low polyreactivity”.
For “QVQLVESGGGLVLAGGSLRLSCAASGLTFEYNAMGWYRQAPGKEGELVASISSGGGTNYADSVKGRFTISRDNAKHTVYLQMNSLKPEDTAVYYCATDNYDWSSWAFRGYWYDYWGQGTQVTVSS”, the “polyreactivity (PSR sort gate)” value was “low polyreactivity”.
In the case of “QVQLVESGGGLVQAGGILRLSCAASGSIFRVYAMGWYRQAPGKERELVAGITSTGTRTYYADSVKGRFTISRDNAKNPVSLQKNSLKPEDTAVYYCAARDTYRKAYYYWGHGTQVTVSS”, the “polyreactivity (PSR sort gate)” value is reported as “high polyreactivity”.
In the case of “QVQLVESGGGLVQAGGSLRLSCAASGLTFPTYAMGWYRQAPGKERELVAAISRIGGRTYYADSVKGRFTISRDNAKNTFYLQMNSLKPEDTAVYYCAADVIKGCVEYDYWGQGTKVTVSS”, the “polyreactivity (PSR sort gate)” value is reported as “high polyreactivity”.
In the case of “QVQLVESGGGLVQAGGSLRLSCAASGRIFLGNVMGWSRQAPGKERELVAAISSGGSTNYADSVKGRFTISRDNAKNTVYLQMNSLKPEDTAVYYCAAYFVRDWKLYYYWGQGTHVTVSS”, the “polyreactivity (PSR sort gate)” value is reported as “low polyreactivity”.
For “QVQLVESGGGLVQAGGSLRLSCAASGSTCRPYVMGWFRQAPGKERELVAAISWRGGTTYYADSVKGRFTISRDNAKNTVSLQMNSLKPEDTAVYYCAARGDQGVPVARRYDYWGQGSQVTVSS”, the “polyreactivity (PSR sort gate)” value was “high polyreactivity”.
With “QVQLVESGGGLVQAGGSLRLRCAASGIIFPYYTMGGYRQAPGKERELVARITNGGRTYYADSVKGRFTISRDNAKNTVYLQMNSLKPEYTAVYYCIAGRYYIGGYWGQGTQVTVSS” the “polyreactivity (PSR sort gate)” value was “high polyreactivity”.
In the case of “QVQLVESGGGLVQAGGSLRLSCAASGNIFSSNAMGWYRQAPGKERELVAAISASGGNTYYSDSVKGRFTISRDNAKNTVYLQMNSLKPEDTAFYYCNAYRGGYLRRGYYYWGQGTQVTVSS”, the “polyreactivity (PSR sort gate)” value is reported as “high polyreactivity”.
In the case of “QVQLVESGGGLVQAGGSLRLSCAASGRTFGRYALGWDRQAPGKDRELVAAISYSTDSTYYADSVKGRFTISRDNAKNTVYLQMNSLKPEDTAVYYCATDSVNVGSYVGDKHDYWGQGTQVTLSS”, the “polyreactivity (PSR sort gate)” value is reported as “low polyreactivity”.
For “QVQLVESSGGLVQAGGSLRLSCAASGSIFPSNAMGWYRQAPGKERELVARITGGGGNTYYADSVKGRFTISRDNAKNTVYLQMNSLKPEDTAVYYCAADYTNWKTGSNEMYYWGQGTQVTVSS”, the “polyreactivity (PSR sort gate)” value was “low polyreactivity”.
For “QVQLVESGGGLVQAGGSLRLSCAASGRTFGGNTMGWYRQAPGKERELVAAISFSGGSTYYADSVKGRFTISRDNAKNTVYLQMNSLKPEDTAVYYCAREDYSHSFLTYDYWGQGTQVTVSS”, the “polyreactivity (PSR sort gate)” value was “low polyreactivity”.
For “QVQLVESGGGLVQAGGSLRLICAASGRIFKVYAMGWYRQAPGKERELVAVITGGGSTNYADSVKGRFTISRDNAKNTVDLQMNSLKPEDTAVYYCATEGYGHGGETDGGVYSELGSWGQGTQVTVSS”, the “polyreactivity (PSR sort gate)” value was “low polyreactivity”.
For “QVQLVESGGGLVQAGGSLRLSCADSGSTFRRYTMGWYRQAPGKERELVASITRSGGSKYYADSVKGRFTISRDNAKNTVYLQMNSLKPEDTAVYFCNKLSGYGWRSYGYWGQGTQVTVSS”, the “polyreactivity (PSR sort gate)” value was “high polyreactivity”.
In the case of “QVQLVESGGGLVQAGGSLRLSCAASGRIFYYYVMGWYRQAPGKERELVATITKRGGDTYYADSVKGRFTISRDNAKNTVYLQMNSLKPEDTAVYYCAAVYLYYSRSDLYDYWGQGTQVTVSS”, the “polyreactivity (PSR sort gate)” value is reported as “low polyreactivity”.
In the case of “QVQLVESGGGLVQAGGSLRLSCAASGITYVSNAMGWYRQAPGKERELFAANTRRGTSTYYADSVKGRFTLSRDNAKNTVYLQMNSLKPVDTAVYYCNKVWKYSSSGFGKEVYGYDYWGQGTQVTVSS”, the “polyreactivity (PSR sort gate)” value is reported as “high polyreactivity”.
For “QVQLVESGGGLVQAGGSLRLSCAASGRTFEYYAMGWYRQAPGKERELVAAITSGGITYYADSVKGRFTISRDNAKYTVYLQMNSLKPEDTAVYYCNARHRYYRYGYWGQGTQVTVSS”, the “polyreactivity (PSR sort gate)” value was “high polyreactivity”.
For “QVQLVESGGGLVQAGGSLRLSCAASGFIVWVYAMGWYRQAPGKERELVAAITSGGGSTYYADSVKGRFTISRDNAKNTVYLQMNSLKPEHTAVYYCNAVSWEGYDFDYWGQGTQVTVSS”, the “polyreactivity (PSR sort gate)” value was “high polyreactivity”.
With “QVQLEESGGGLVQAGGSLRLSCAAYGFTIVGNTMGWYRQAPGKERELVASINTNGGSTYYADSVKGRFTISRDNAKNTVYLQMNSLKPEDTAVYYCNARSWYPYDYWGQGTQVTVSS” the “polyreactivity (PSR sort gate)” value was “low polyreactivity”.
For “QVQLVESGGGLVQAGGSLRLSCAASGGILETNAMGWYRQAPGKERELVAAIDFSAGSTYYADSVKGRFTISRDNAKNTVYLQMNSLKPEDTAVYYCATRLGVLYDYWGQGTQVTVSS”, the “polyreactivity (PSR sort gate)” value was “low polyreactivity”.
For “QVQLVESGGGLVQAGGSLRLSCAASGRIFTHNVMGWYRQAPGTERELVAAISGGGGSTYYADSVKGRFTLSRDNAKNNVYKQMNSLKPEDTAVYYCAKDNHYEADRYDYWGQGTQVTVSS”, the “polyreactivity (PSR sort gate)” value was “low polyreactivity”.
With “QVQLVESGGGLVQAGGSPRLSCAASGFTFGHYAMGWYREAPGKERELVAAISIDGGRTYYADSVKGRFTISRDNAKNSVYLQMNSLKPEDTAVYYCAVPRWFYYYWGQGTQVTVSS” the “polyreactivity (PSR sort gate)” value was “high polyreactivity”.
For “QVQLVESGGGVVQAGGSLRLSGAASGSTLLRNAMGWYRQAPGKAWELVAVITYSGGSTYYADSVKGRFTISRDQAKNTVYLQMNSLIPEDTAVYYCAADKWYYVRYATDAYSKFDYWGQGTQVTVSS”, the “polyreactivity (PSR sort gate)” value was “low polyreactivity”.
For “QVQLVESGGGLVQAGGSLRLSCAASGITFKYYAMGWYRQAPGKEREFVASISARGGGTYYADSVKGRFTISRDNAKNTVYLQMNSLKPEDTAVYYCAVDYRYGYFVYVHYEYWGQGTQVTVSS”, the “polyreactivity (PSR sort gate)” value was “high polyreactivity”.
In the case of “QVQLVESGGGLVQAGGSLRLSCAASGMGWYRQAPGKERELVATITWSDGITYADSVKGRFTISRDNAKNTVYLQMNSLKPEDTAVYYCNADWDQTGTVFYSFGMREMDSWGQGTQVTVSS”, the “polyreactivity (PSR sort gate)” value is reported as “low polyreactivity”.
With “QVQLVESGGGLVQAGGSLRLSCAASGRIIADNAMGWYRQAPGKERELVATISSGGSTSYADSVKGRFTLSRDNAKNTVYLQMNSLKPEDTAVYYCATPFTGPSGPYDYWGQGTQGTVSS” the “polyreactivity (PSR sort gate)” value was “low polyreactivity”.
For “QVQLVESGGGLVQAGGSLRLSSAASGRIFSYNAMGWYRQAPGKERELVASISYSGTSTYYADSVKGRFTISRDNAKNTVYLQMNRLKPEDTAVYYCAALSRRRFGYWGQGTQVTVSS”, the “polyreactivity (PSR sort gate)” value was “high polyreactivity”.
For “QVQLVESRGGLVQAGGSLRLRCAASGFILDTYGIVWYRQAPGKERELVAAIYQSDVSTYYADSVKGRFTISRDNAKNTVYLQMNSLKPEDTAVYYCAADRGVLRWFCQVLYDYWGQGTQVTVSS”, the “polyreactivity (PSR sort gate)” value was “low polyreactivity”.
For “QVQLVESGGGLVQAGGSLRLSCAASGLIFRGYVMGWYRQAPGKERELVAAISRRGVNTYYADSVKGRFTISRDNAKNTFYLQMNSLKPEDTAVYYCNAYVHTQGGDYWGQGTQVTVSS”, the “polyreactivity (PSR sort gate)” value was “high polyreactivity”.
In the case of “QVQLVESGGGLVQAGGSLRLSCAASGNIIDANAIGWYRPAPGKERQLVAAITSSGGSTYYADSVKGRFTISRDNAKNTVYLQMNSLKPEDTAVYYCAKSHAIYYWWDESWGQGTQVTVSS”, the “polyreactivity (PSR sort gate)” value is reported as “low polyreactivity”.
In the case of “QVQLVESGGGLVQAGGSLRLSCAASGIIFFWNAMGWYRQAPGKERELVAAISEDGGGTYYADSVKGRFTISRDNAKNTVYLQMNSMKPEDTAVYYCNTDTSPQIVTRGSFDDYWGQGTQATVSS”, the “polyreactivity (PSR sort gate)” value is reported as “low polyreactivity”.
For “QVQLVESGGGLVQAGGSLRLSCAASGFIFFFYAMGWYSQAPGKERELVASISWNGGSTYYADSVKGRFTISRDNAKNTVYLQMNSLKPEDTAVYYCNKDPVSLWYYSKDYTYDYWGQGTQVTVSS”, the “polyreactivity (PSR sort gate)” value was “low polyreactivity”.
With “QVQLVESGGGLVQAGGSLRLSCAASGSIFEFNAMGWYRQAPGKERELVAAITWGGGSTYYADSVKGRFTISRDNAKNTVYLQMNSLKPEDTAVYYCNAAYGRYRYDYWGQGTQVTVSS” the “polyreactivity (PSR sort gate)” value was “low polyreactivity”.
With “QVQLVESGGGLVQAGGSLRLSCAASGRIFLINALGCYRQAPGKERELVAAIRTGGNTYYADSVKGRFTISRDNAKNTVYLQMNSLKPEDTAVYSCAADRIYPYYRWSGAHRSDVDYWGQGTQVTVSS” the “polyreactivity (PSR sort gate)” value was “low polyreactivity”.
In the case of “QVQLVESGGGLVQAGGILRLSCAASGITFKPYGMGWYRQAHGKESELVADITSGGITYYADSVKGRFTISRDNAKNTVYLQMNSLIAEDTAVYFCATGDLFVYYWGYVVRLYDFWGQGTQVTVSS”, the “polyreactivity (PSR sort gate)” value is reported as “low polyreactivity”.
With “HGQLVESAAGLVQAGGSLRLSGAASGLIFYDNMGWYRQAPAKDRELVAAISSSGGSTSYADSVKGRFTISRDNAKNTFYLQMNSLKPEDTAVYYCAADSYPAYLGFVGFDYWGLGTQVTVSS” the “polyreactivity (PSR sort gate)” value was “low polyreactivity”.
For “QVQLVESWGGLVQAGGSLRLSCAASGLIIYTYAMGWYRQAPGKERELVADINRSDGSTYYADSVKGRFTISRDNAKNTVYLQMNSLKPEDTAVYYCAVVGPYYSRFGGRYYYWGQGTQVTVSS”, the “polyreactivity (PSR sort gate)” value was “low polyreactivity”.
In the case of “QVQLVESGGGLVQAGGSLPLSCAASGRTFYYYAMGWYRQAPGKERELVAAISWSGGRTYYADSVKGSFTISRDNAKNTVYLQMNSLKPADTAVYYCNAEPPRGYTVSSGGEMDYWGQCTQVTVSS”, the “polyreactivity (PSR sort gate)” value is reported as “low polyreactivity”.
